The record followed here is patent publication US6333311, “Useful properties of human lactoferrin and variants thereof” (Pharming, dated 2001).

First the molecules themselves.
B1: natural human lactoferrin (ligand)
chain: GRRRRSVQWCAVSQPEATKCFQWQRNMRKVRGPPVSCIKRDSPIQCIQAIAENRADAVTLDGGFIYEAGLAPYKLRPVAAEVYGTERQPRTHYYAVAVVKKGGSFQLNELQGLKSCHTGLRRTAGWNVPIGTLRPFLNWTGPPEPIEAAVARFFSASCVPGADKGQFPNLCRLCAGTGENKCAFSSQEPYFSYSGAFKCLRDGAGDVAFIRESTVFEDLSDEAERDEYELLCPDNTRKPVDKFKDCHLARVPSHAVVARSVNGKEDAIWNLLRQAQEKFGKDKSPKFQLFGSPSGQKDLLFKDSAIGFSRVPPRIDSGLYLGSGYFTAIQNLRKSEEEVAARRARVVWCAVGEQELRKCNQWSGLSEGSVTCSSASTTEDCIALVLKGEADAMSLDGGYVYTAGKCGLVPVLAENYKSQQSSDPDPNCVDRPVEGYLAVAVVRRSDTSLTWNSVKGKKSCHTAVDRTAGWNIPMGLLFNQTGSCKFDEYFSQSCAPGSDPRSNLCALCIGDEQGENKCVPNSNERYYGYTGAFRCLAENAGDVAFVKDVTVLQNTDGNNNEAWAKDLKLADFALLCLDGKRKPVTEARSCHLAMAPNHAVVSRMDKVERLKQVLLHQQAKFGRNGSDCPDKFCLFQSETKNLLFNDNTECLARLHGKTTYEKYLGPQYVAGITNLKKCSTSPLLEACEFLRK
B3: human lysozyme (enzyme)
chain: KVFERCELARTLKRLGMDGYRGISLANWMCLAKWESGYNTRATNYNAGDRSTDYGIFQINSRYWCNDGKTPGAVNACHLSCSALLQDNIADAVACAKRVVRDPQGIRAWVAWRNRCQNRDVRQYVQGCGV

Assay [1] has as its target B3. As to the kind of experiment: competitive ELISA: unlabelled competitor against 12.5 nM biotinylated hLF on hLZ-coated plates. In general terms: In an ELISA, binding on a coated surface is turned into a signal by an enzyme label.
Assay [2] addresses B1. Briefly: solid-phase ligand binding ELISA, hLZ-coated plates.
In assay [3] the target is human transferrin (human, UniProt P02787). Briefly: competitive ELISA: hTF as competitor of 12.5 nM biotinylated hLF on hLZ-coated plates.

For B1, the IC50 (in general, the point on the concentration scale where inhibition reaches its midpoint) in assay [1] was determined as 11.2 nM.

B2: iron-saturated human lactoferrin (ligand)
chain: GRRRRSVQWCAVSQPEATKCFQWQRNMRKVRGPPVSCIKRDSPIQCIQAIAENRADAVTLDGGFIYEAGLAPYKLRPVAAEVYGTERQPRTHYYAVAVVKKGGSFQLNELQGLKSCHTGLRRTAGWNVPIGTLRPFLNWTGPPEPIEAAVARFFSASCVPGADKGQFPNLCRLCAGTGENKCAFSSQEPYFSYSGAFKCLRDGAGDVAFIRESTVFEDLSDEAERDEYELLCPDNTRKPVDKFKDCHLARVPSHAVVARSVNGKEDAIWNLLRQAQEKFGKDKSPKFQLFGSPSGQKDLLFKDSAIGFSRVPPRIDSGLYLGSGYFTAIQNLRKSEEEVAARRARVVWCAVGEQELRKCNQWSGLSEGSVTCSSASTTEDCIALVLKGEADAMSLDGGYVYTAGKCGLVPVLAENYKSQQSSDPDPNCVDRPVEGYLAVAVVRRSDTSLTWNSVKGKKSCHTAVDRTAGWNIPMGLLFNQTGSCKFDEYFSQSCAPGSDPRSNLCALCIGDEQGENKCVPNSNERYYGYTGAFRCLAENAGDVAFVKDVTVLQNTDGNNNEAWAKDLKLADFALLCLDGKRKPVTEARSCHLAMAPNHAVVSRMDKVERLKQVLLHQQAKFGRNGSDCPDKFCLFQSETKNLLFNDNTECLARLHGKTTYEKYLGPQYVAGITNLKKCSTSPLLEACEFLRK
Molecule B2 had an IC50 in assay [1] of 15.4 nM. B3: the binding result was “binds” in assay [2] and “no binding” in assay [3].
